In patent publication US20250320278A1 (LA JOLLA INSTITUTE FOR IMMUNOLOGY, published 2025):
Like-named read-outs stand apart in the source and are kept apart here.

B1: NP3-E11 (antibody, V domains shown)
VH: EVQLQQSGPELVRPGVSVKISCKGSGYTFTDYVMHWVKQSHAKSLEWIGVISTYSGNTNYNQKFKGKATMTVDKSSNTVYMELARLTSEDSAIYYCTRGTGDFDYWGQGTTLTVSS
VL: DIVMTQSHKFMSTSVGDRVSITCKASQDVGSAVAWYQQKPGQSPKLLIYWTSTRHTGVPDHFTGSGSGTDFTLTINNVQSEDLADYFCHQYSSYPYTFGGGTKLEIK
B2: NP3-B12 (antibody, V domains shown)
VH: EVQLQQSGAELMKPGASVKISCKATGYTFSSYWIEWVKQRPGHGLEWIGEFFPGSGNTNYNEKFKGKATFTADTSSNTAYMQLSSLTSEDSAVYYCARRGLYDGYYVRYFDVWGAGTTVTVSS
VL: DIVLTQSPASLAVSLGQRATISCKASQSVDYDGYSYMNWYQQKPGQPPKLLIYAASNLESGIPARFSGSGSGTDFTLNIHPVEEEDAATYYCQQSNADPFTFGGGTKLELK
B3: NP3-G12 (antibody, V domains shown)
VH: EAQLQQSGAEPMKPGASVKISCKTTGYTFTSDWIEWVQQRPGHGLEWIGEILPGSGNTNYNENFKGKATLTADTSSNTAYMHLSSLTSEDSAVYYCARRLFLRRYFDVWGAGTTVTVSS
VL: DIVMTQSPASLAVSLGQRATISCKASQSVDYDGDSYMNWYQQKPGQPPKLLIYAASNLESGIPARFGGGGSGTDFTLNIHPVEEEDAATYYCQQSNEDPFTFGGGTKLELK
B4: NP3-E6 (antibody, V domains shown)
VH: EVQLQQSGAELMRPGASVKISCKATGYTFSSYWIEWVKQRPGHGLEWIGEILPGSDNTNYNEKFKGKATLTADTSSNTAYMHLSSLTSEDSAVYSCARRLFLRRYFDVWGAGTTVTVSS
VL: DIVLTQSPASLALSLGQRATISCKASQSVDYDGDSYMNWYQQKPGQPPKLLISAASNLESGIPARFGGSGSGTDFTLNIHPVEEEDAATYYCQQSNEDPFTFGGGTKLEIK
B5: NP3-C9 (antibody, V domains shown)
VH: QIQLVQSGPELKKPGETVKISCKASGYTFTDYSIHWVKQAPGKDLKWVGWINTETGEPTYADDFEGRFAFSLETSASTAFLQINNLKNEDTATYFCSRGAATGFWGQGTTLTVSS
VL: DIVLTQSPASLAVSLGQRATISCKASQSVDYDGDSYMNWYQQKPGQPPKLLIYVASNLESGIPARFSGSGSGTDFTLNIHPVEDEDAATYYCQQTNEDPLTFGAGTKLELK
B6: NP3-G8 (antibody, V domains shown)
VH: QVQLQQSGPELKKPGETVKISCKASGYTFTDYSMHWVKQAPGKGLKWLGWKNTESGEETFADDFKGRFDFSLETSASTVYLQIKNLKNEDTAAYFCARSGDIYAMDYWGQGTTVTVSS
VL: ENVLTQSPASLAVSLGQRATISCKASQSVDYDGGSYMNWYQQKPGQPPKLLIYAASTLESGIPAGFSGSGSGTDFTLNIHPVEEEDAATYYCQQSNEDPWTFGGGTKLEIK
B7: NP3-F7 (antibody, V domains shown)
VH: EVQLQQSGAELVRPGSSVKISCKASGYAFSSYWMNWVKQRPGQGLEWIGQIYPGNGDTYYNGKFMGKATLTADKFSSTAYMQLSGLTSEDSAVYFCARRPLFYAMDYWGQGTSVTVSS
VL: DIVLTQSPGSLAVSLGQRATISCKASQSVDYDGDSYMNWYQQKPGQPPKLLIYAASNLESGIPVRFSGSGSGTDFTLNIHPVEEEDAATYYCQQSNEDPWTFGGGTKLELK
B8: NP3-G9 (antibody, V domains shown)
VH: EVQLQQSGAELVRPGSSVKISCKASGYAFSNYWMNWVRQRPGQGLEWIGQIYPGNDDTYYNGKFKGKVTLTADKSSTTAYIQLISLTSEDSAVYFCARRPLFYAMDYWGQGTSVTVSS
VL: DIQMTQSPSSLAVSLGQRASISCKASQSVDYDGESYMNWYQQKPGQPPKVLIYAASNLESGIPARFSGSGAGTDFTLSIHPVEEEDAATYYCQQSYEDPWTFGGGTKLELK
B9: NP3-A7 (antibody, V domains shown)
VH: QIQLVQSGAELVKPGASVKLSCTASGFNIKDTYIHWVRQRPEQGLEWIGRIDPANGDTKYDPKFQDKATLIADTSSNTAYLQLGSLTSEDTAVYYCARYRIYYFDYWGQGTTLTVSS
VL: DIQMTQSPASVPVTPGESVSISCRSSKSLLHSNGNTYVYWFLQRPGQSPRLLIYRMSNLASGVPDRFSGSGSGTAITLRISRVEAEDVGVYSCMQHLEYPLTFGAGTKLEIK
B10: NP3-B9 (antibody, V domains shown)
VH: EVQLQQSGPELKKPGETVKISCKTSGYTFTNCGMHWVKQAPGKGLKWMGWINTYTGEPTYADDFKGRFAFSLETSVNTAYLQINNLKSEDTASYFCARRDDVYYVAGFDYWGQGTTLTVSS
VL: DIQMTQSPASLSVSVGETVTITCRASENIYSNLAWYQQKQGKSPQLLVNGATDLADGVPSRFSGSGSGTQYSLKINSLQSEDFGSYYCQLFWGTPWTFGGGTKLEIK
B11: NP3-C5 (antibody, V domains shown)
VH: QIQLVQSGPELKTPGETVKISCKASGYTFTNCGMHWVKQAPGKGLKWMGWINTYTGEPIYADDFKRRFAFSLETSASTAYLQINNLNNEDTASYFCARRDDVYYVAGFDYWGQGTTVTVFS
VL: DIQMTQSPASLSVSVGETVTITCRASENIYSNLAWYQQKQGKSPQLLVYGATDLADGVPSRFSGSGSGTQYSLKINSLQSEDFGSYYCQHFWGTPWTFGGGTKLELK
B12: NP3-F4 (antibody, V domains shown)
VH: EVQLVESGPELKKPGETVKIPCKTSGYTFTNYGMNWVKQAPGKGLKWMGWINTNTGEPTYAEDFKGRFAFSLETSASTAYLQISNLKNEDTATFFCARGSIYDGYYEGLYYWGQGTTLTVSS
VL: DIKMTQSPSSLSVSVGETVTITCRASENIYSNLAWYQQKQGKSPQLLVSAATNLADNVPSRFSGSGSGTQYSLKINSLQSEDFGSYYCQHFWGFPRTFGGGTKLEIK
B13: NP3-H9 (antibody, V domains shown)
VH: QIQLVQSGPELKKPGETVKISCKASGYTFTDYPIHWVKQAPGKGLKWMGWINAETGEPTYADDFKGRFVVSLETSASTAYLQINNLKNEDTATFFCARHYRYDEAWFVYWGQGTLVTVSA
VL: DVQITQSPSSLSVSVGETVTITCRASENIYSNLAWYQQKQGKSPQLLVYAATDLADGVPSRFSGSGSGTHYSLKINSLQSEDFGSFYCQHFWGTPWTFGGGTKLEIK
B14: NP3-H12 (antibody, V domains shown)
VH: QIQLVQSGPELKKPGETVKISCKASGYMFTNYGMNWVKQAPGKGLKWMGWINTYTGEPTYADDFKGRFAFSLDISGSTAYLQINNLKNEDMATYFCARTREIWGNVDFPYWGQGTLVTVSA
VL: DILMTQAAPSLSVSVGETVTITCRASENIYSDLAWYQHKEGKSPQLLVYAATDLADGVPSRFSGSGSGTQYSLKINSLQSEDFGNYYCQHFWGTPWTFGGGTKLEIK
B15: NP3-G6 (antibody, V domains shown)
VH: EVQLVESGGGLVKPGGSLKLSCAASGFTFSDYYMSWVRQTPEKRLEWVATISDGGSYTYYPDSVKGRFTISRDNAKNNLYLHMSSLKSEDTAMYYCARGSTYGNPLDYWGQGTSVTVSS
VL: DIQMTQSPASLSASLGDRVTINCSASQGISNYLNWYQQKPDGTVKLLIYFTSSLHSGFPSRFSGSGSGTDFSLTISNLEPEDIATYYCQQYSKLPFTFGSGTKLEIK
B16: NP3-E4 (antibody, V domains shown)
VH: EVQLVESGPGLVAPSQSLSITCTVSGFSLTSYGVSWVRQPPGKGLEWLGVIWGDGSTNYHSALISRLSINKDNSKSQVFLRLNSLQTDDTATYYCAKEDDGYLFYFDYWGQGTTLTVSS
VL: DIKMTQSPSSLSASLGDRVTISCSASQDISDYLNWYQQKPDGTVKLLIYYTSSLHSGVPSRFSGSGSGTDYSLTISNLEPEDIATYYCQQYSKLPYTFGGGTKLEIK
B17: NP3-D1 (antibody, V domains shown)
VH: DVQLQESGPELAKPGASVKVSCKASGYTFTSYNIYWVKQSHGKSLEWIGYIDPYNGGTSYNQKFKGKATLTVDKSSSTAYMHLNSLTSEDSAVYYCALPWDYWGQGTSVTVSS
VL: not shown
B18: NP3-F10 (antibody, V domains shown)
VH: EVQLQQSGAELVEPGAPVKLSCKAFGYTFTSYWMNWVKQRPGRGLEWIGRIDPSDSETHYNQNFKDKAALTVDRSSSTAYIHLSSLTSEDSAVYYCAREVTTATKGVFSWLAYWGQGTLVTVSA
VL: DIQMTQTTSSLSASLGDRVTISCSASQDISDYLNWYQQKPDGTIKLLIYYTSSLHSGAPSRFSGSGSGTDYSLTISNLEPEDIATYYCQQYSKLPWTFGGGTKLELK
B19: NP3-B4 (antibody, V domains shown)
VH: EVQLVESGGGLVQPGGSVKLSCLASGFTFSDYYMSWVRQSPEKGLEWVAEIRLESDNYATHYAESVKGKFTISRDDSKSRLYLKMNSLRGEDTGIYYCAFDVYYGGAMDYWGQGTTVTVSS
VL: DIQMTQSPSIMSASPGEKVTMTCSASSSVSYMHWYQQKSSTSPKLWIYDTSELASGVPGRFSGSRSGNSYSLTISSMEAEDVATYYCFQGSGYPLTFGGGTKLELK

Assays:
[1] = molecular target: T1, SARS-CoV-2 N protein oligomerization domain (SARS-CoV-2, UniProt P0DTC9 247-364); experiment: Octet, KD (nM) heat map
T1 construct: also called N olig. domain; OD

[2] = molecular target: T2, SARS-CoV-2 N protein, full-length (SARS-CoV-2, UniProt P0DTC9 1-419); experiment: Octet (BLI) kinetics
T2 construct: mature; also called SARS-CoV-2 nucleoprotein

[3] = molecular target: T3, SARS-CoV-2 N protein RNA-binding domain (SARS-CoV-2, UniProt P0DTC9 44-180); experiment: Octet (BLI) kinetics
[4] = molecular target: T3, SARS-CoV-2 N protein RNA-binding domain; experiment: Octet, KD (nM) heat map
[5] = molecular target: T2, SARS-CoV-2 N protein, full-length; experiment: Octet (BLI) kinetics; remark: listed apart in the source
[6] = molecular target: T1, SARS-CoV-2 N protein oligomerization …; experiment: Octet (BLI) kinetics

Row | Binder | binding result [1] | Kd [2] [nM] | Kd [3] [nM] | binding result [4] | Kd [5] [nM] | Kd [6] [nM]
1 | B1 | no binding | 1.23 | 0.57 | – | – | –
2 | B2 | – | – | – | no binding | 1 | 0.78
3 | B3 | – | – | – | no binding | – | –
4 | B4 | – | – | – | no binding | 0.48 | –
5 | B5 | no binding | – | – | no binding | 0.75 | –
6 | B6 | – | – | – | no binding | 2.54 | 1.05
7 | B7 | – | – | – | no binding | – | –
8 | B8 | – | – | – | no binding | – | –
9 | B9 | no binding | – | – | no binding | 2.75 | –
10 | B10 | no binding | 0.38 | 0.47 | – | – | –
11 | B11 | no binding | 0.73 | 0.62 | – | – | –
12 | B12 | no binding | 2.84 | 5.57 | – | – | –
13 | B13 | no binding | 5.2 | 3.16 | – | – | –
14 | B14 | no binding | 0.72 | 1.89 | – | – | –
15 | B15 | no binding | 0.43 | 0.88 | – | – | –
16 | B16 | no binding | 0.71 | 3.46 | – | – | –
17 | B17 | no binding | 5.63 | 0.0015 | – | – | –
18 | B18 | no binding | 2.53 | 5.6 | – | – | –
19 | B19 | – | – | – | no binding | – | –
